Reference: patent US20250197490A1 (HBM ALPHA THERAPEUTICS, published 2025)
Where a chain is given by its changes, count along the chain named. Where two headings read alike, the source gives them in different places.

T1: corticotropin-releasing hormone (CRH) peptide (human and mouse, UniProt P01143 145-185 (rat entry), not fully specified)
T1 peptide: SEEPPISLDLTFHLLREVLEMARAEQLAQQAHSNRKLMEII

B1: PR302334-27 (antibody, human IgG1, kappa, V domains shown)
VH: EVQLVESGGGLVQPGGSLRLSCAASGFTFSTYAMSWVRQAPGKGLEWVASIRSGGTTYYPDSVKGRFTISRDNSKNSLYLQMNSLRAEDTAVYYCTRGIDWGQGTTVTVSS
VL: DIQMTQSSLSASVSLGDRVTITCKASQSVNNDVAWYQQKPGKAPRLLIYYASNRYTGVPSRFSGSGSGTDFTFTISSLQPEDLATYFCQQDYSSWTFGGGTKVEIKR
B2: PR302334-10 (antibody, human IgG1, kappa, V domains shown)
VH: B1 VH with S77T
VL: DIVMTQSPDSLAVSLGERATINCKASQSVNNDVAWYQQKPGQPPRLLIYYASNRYTGVPDRFSGSGSGTDFTLTISSLQAEDLAVYFCQQDYSSWTFGGGTKVEIKR
B3: PR302334-8 (antibody, human IgG1, kappa, V domains shown)
VH: B1 VH with S77T
VL: EIVMTQSPATLSVSPGERATLSCKASQSVNNDVAWYQQKPGQAPRLLIYYASNRYTGIPARFSGSGSGTEFTLTISSLQSEDLAVYFCQQDYSSWTFGGGTKVEIKR
B4: PR302334-7 (antibody, human IgG1, kappa, V domains shown)
VH: B1 VH with S77T
VL: B3 VL with L83F, F87Y
B5: PR302334-18 (antibody, human IgG1, kappa, V domains shown)
VH: B1 VH
VL: NIVMTQTPKFLLVSAGDRITITCKASQSVNNDVAWYQQKPGQSPKLLIYYASNRYTGVPDRFTGSGYGTDFTFTISTVQAEDLAVYFCQQDYSSWTFGGGTNLEIKR
B6: PR302334-24 (antibody, human IgG1, kappa, V domains shown)
VH: B1 VH with Q13K, S74A
VL: B2 VL
B7: PR302334-9 (antibody, human IgG1, kappa, V domains shown)
VH: B1 VH with S77T
VL: B2 VL with L83V, F87Y
B8: PR302334-25 (antibody, human IgG1, kappa, V domains shown)
VH: B1 VH with Q13K, S74A
VL: B1 VL
B9: PR302334-16 (antibody, human IgG1, kappa, V domains shown)
VH: B1 VH with Q13K, S74A
VL: B5 VL
B10: PR302334-17 (antibody, human IgG1, kappa, V domains shown)
VH: B1 VH with A49S, T96A
VL: B5 VL
B11: PR302334-12 (antibody, human IgG1, kappa, V domains shown)
VH: B1 VH with S77T
VL: B1 VL
B12: PR302334-5 (antibody, human IgG1, kappa, V domains shown)
VH: EVKLVESGGGLVKPGGSLKLSCAASGFTFSTYAMSWVRQTPEKRLEWVASIRSGGTTYYPDSVKGRFTISRDNARNILYLQMSSLRSEDTAIYYCTRGIDWGQGTLVTVSA
VL: B1 VL with L83I, F87Y
B13: PR302334-14 (antibody, human IgG1, kappa, V domains shown)
VH: B1 VH with S77T
VL: B5 VL
B14: PR302334-22 (antibody, human IgG1, kappa, V domains shown)
VH: B1 VH with A49S, T96A
VL: B3 VL
B15: PR302334-6 (antibody, human IgG1, kappa, V domains shown)
VH: B12 VH
VL: B1 VL
B16: PR302334-15 (antibody, human IgG1, kappa, V domains shown)
VH: B1 VH with Q13K, A49S, S74A, T96A
VL: B5 VL
B17: PR302334-11 (antibody, human IgG1, kappa, V domains shown)
VH: B1 VH with S77T
VL: B1 VL with L83I, F87Y
B18: PR302341-12 (antibody, human IgG1, kappa, V domains shown)
VH: QVQLVQSGAEVKKPGASVKVSCKASGYTFTDYFMKWVRQAPGQGLEWMGVINPNNGDIFYNQKFKGRVTMTVDKSTSTAYMELSSLRSEDTAVYYCARGTDRALFAYWGQGTLVTVSS
VL: DVVMTQTPLSLSVTPGQPASISCRSGQSIVHSDGNTYLEWYLQKPGQSPQLLIYKVSNRFSGVPDRFSGSGSGTDFTLKISRVEAEDLGVYYCFQGSHIPWTFGGGTKVEIKR
B19: PR302341-23 (antibody, human IgG1, kappa, V domains shown)
VH: B18 VH with T76I, S85R, E89D
VL: B18 VL with T7S, S12P, P15L, L42Q, K44R, Q50R
B20: PR302341-15 (antibody, human IgG1, kappa, V domains shown)
VH: B18 VH with G44R, M70I, V72R, K74T, T76A
VL: DVLMTQTPLSLPVSLGDQASISCRSGQSIVHSDGNTYLEWYLQRPGQSPRLLIYKVSNRFSGVPDRFSGSGSGTDFTLKISRVGAEDLGIYYCFQGSHIPWTFGGGTKLEVKR
B21: PR302341-24 (antibody, human IgG1, kappa, V domains shown)
VH: B18 VH with G44R, M70I, T76A
VL: B18 VL with L11S, S12P, P15L, L42Q, K44R, S48P, Q50R, S72A
B22: PR302341-25 (antibody, human IgG1, kappa, V domains shown)
VH: B18 VH with G44R, M70I, T76A
VL: B18 VL
B23: PR302341-27 (antibody, human IgG1, kappa, V domains shown)
VH: B18 VH with T76I, S85R, E89D
VL: B18 VL
B24: PR302341-20 (antibody, human IgG1, kappa, V domains shown)
VH: B18 VH with G44R, M70I, V72R, K74T, T76A
VL: B18 VL with T7S, S12P, P15L, L42Q, K44R, Q50R
B25: PR302341-17 (antibody, human IgG1, kappa, V domains shown)
VH: B18 VH with V72R, K74T, T76I, S85R, E89D
VL: B20 VL
B26: PR302341-21 (antibody, human IgG1, kappa, V domains shown)
VH: B18 VH with G44R, M70I, T76A
VL: B18 VL with T7S, S12P, P15L, L42Q, K44R, Q50R
B27: PR302341-18 (antibody, human IgG1, kappa, V domains shown)
VH: B18 VH with T76I, S85R, E89D
VL: B20 VL
B28: PR302341-22 (antibody, human IgG1, kappa, V domains shown)
VH: B18 VH with V72R, K74T, T76I, S85R, E89D
VL: B18 VL with T7S, S12P, P15L, L42Q, K44R, Q50R
B29: PR302341-26 (antibody, human IgG1, kappa, V domains shown)
VH: B18 VH with T76I, S85R, E89D
VL: B18 VL with L11S, S12P, P15L, L42Q, K44R, S48P, Q50R, S72A
B30: PR302341-16 (antibody, human IgG1, kappa, V domains shown)
VH: B18 VH with G44R, M70I, T76A
VL: B20 VL
B31: PR302334-1 (antibody, human IgG1, kappa, V domains shown)
VH: B12 VH
VL: B3 VL with L83F, F87Y
B32: PR302334-3 (antibody, human IgG1, kappa, V domains shown)
VH: B12 VH
VL: B2 VL with L83V, F87Y
B33: PR302334-4 (antibody, human IgG1, kappa, V domains shown)
VH: B12 VH
VL: B2 VL
B34: PR302334-2 (antibody, human IgG1, kappa, V domains shown)
VH: B12 VH
VL: B3 VL

Columns and labels:
[1] = molecular target: T1, corticotropin-releasing hormone (CRH) …; experiment: cell-based or functional assay
[2] = molecular target: T1, corticotropin-releasing hormone (CRH) …; experiment: cell-based or functional assay

Binder | hCRHR1-Luc 0.5 nM CRH IC50 [1] [nM] | hCRHR1-Luc 0.5 nM CRH IC50 [2] [nM]
B1 | 1.36 | –
B2 | 0.839 | –
B3 | 0.816 | –
B4 | 0.996 | –
B5 | 0.279 | –
B6 | 0.778 | –
B7 | 1.42 | –
B8 | 1.7 | –
B9 | 0.339 | –
B10 | 12.2 | –
B11 | 0.986 | –
B12 | 0.325 | –
B13 | 0.468 | –
B14 | 0.92 | –
B15 | 0.404 | –
B16 | 5.12 | –
B17 | 1 | –

Binder | hCRHR1-Luc 0.5 nM CRH IC50 [1] [nM] | hCRHR1-Luc 0.5 nM CRH IC50 [2] [nM]
B18 | – | 0.25
B19 | – | 0.043
B20 | – | 0.124
B21 | – | 0.192
B22 | – | 0.711
B23 | – | 0.518
B24 | – | 0.162
B25 | – | 0.104
B26 | – | 0.177
B27 | – | 0.169
B28 | – | 0.243
B29 | – | 0.273
B30 | – | 0.225
B31 | 0.624 | –
B32 | 0.542 | –
B33 | 0.553 | –
B34 | 0.597 | –
